Test: Phase 1 clinical study of BA3011: safety (adverse events, DLT, MTD, RP2D)
Format: in vivo, human
Conditions: Phase 1
Excerpt: MTD evaluation will be based on the DLT-evaluable Population. The DLT-evaluable Population includes all patients enrolled in Phase 1 dose escalation who receive at least 1 full assigned dose of BA3011 and complete the safety follow-up through the DLT-evaluation period (defined as the time period from the first dose of BA3011 through 21 days post Dose 1) or experience any DLT during the DLT-evaluation period. Non-DLT-evaluable patients will be replaced. The safety evaluation will be based on the As-Treated Population. Adverse events (AEs) will be coded by Medical Dictionary for Regulatory Activities (MedDRA) and graded according to the NCI CTCAE v4.03, and the type, incidence, severity, and relationship to each IP will be summarized. If any associations of interest between AEs and baseline characteristics are observed, additional stratified results may be presented. All treatment-emergent AEs will be summarized by MedDRA system organ class and preferred term. Laboratory abnormalities with toxicity grades according to the NCI CTCAE will be summarized.
A DLT is defined as meeting 1 of the following criteria during the 21-day DLT evaluation period or a treatment-related toxicity of any grade requiring dose delay of 1 week or more between the first and second cycles: • Non-hematologic Toxicity • For non-hematologic toxicities, DLT will be defined as any National Cancer Institute (NCI) Common Terminology Criteria for Adverse Events (CTCAE) v4.03 (published 14 Jun. 2010) Grade 3 or greater toxicity at least possibly related to treatment, except for: • Grade 3 fatigue. • Grade 3 nausea and vomiting lasting less than 24 hours. • Grade 3 non-hematologic laboratory abnormalities that are asymptomatic and resolve to Grade 1 or baseline (if the patient entered the study with existing toxicity) within 14 days. • Grade 3 or 4 allergic or hypersensitivity reaction at first occurrence in the absence of prophylactic steroid that resolves in less than 6 hours with appropriate clinical intervention
• DLT for hematologic toxicity, using NCI CTCAE v4.03, will be defined as: • Grade 4 neutropenia lasting greater than 7 days. • Grade 3 or 4 febrile neutropenia. • Grade 4 platelet count (<25,000/mm3) at any time.
Study BA3011-001 was an ongoing, multi-center, open-label, Phase 1/2 first-in-human trial of BA3011.
In Phase 1 (NCT03425279), BA3011 was administered once (Q3W) or twice (2Q3W) every 3 weeks via intravenous (IV) infusion.

[1] = 0.3 mg/kg Q3W, 1 sarcoma patient
[2] = 1.2 mg/kg 2Q3W, 2 sarcoma patients
[3] = 1.8 mg/kg 2Q3W, 19 sarcoma patients
[4] = 1.8 mg/kg Q3W, 2 sarcoma patients
[5] = 2.4 mg/kg Q3W, 2 sarcoma patients
[6] = All TEAEs, All Grades, sarcoma patients

B1: Mecbotamab vedotin (conjugate, chains of the INN, looked up)
VH: EVQLVQSGAEVKKPGATVKISCKVSGYSFWGATMNWIRQPPGKGLEWIGLIKPSNGGTSYNQKFKGRVTISADKSISTAYLQWSSLKASDTAMYYCAHGHYESYEAMDYWGQGTLVTVSS
VL: DIQMTQSPSSLSASVGDRVTITCKASQDVVSAVAWYQQKPGQAPRLLIYWQDTRHTGVPSRFSGSGSGTEFTLTISSLQPDDFATYYCQEHFSPPLTFGQGTKVEIK
modifications: MC-vc-PAB-MMAE conjugate
Any TEAE, % of patients [1]: 100.0% | Any TEAE, no. of patients [1]: 1 | Any related serious TEAE, no. of patients [1]: 0 | Any serious TEAE, no. of patients [1]: 0 | Related TEAE leading to treatment discontinuation, no. of patients [1]: 0 | Related TEAEs with CTCAE grade 3 or 4, no. of patients [1]: 0 | TEAE leading to treatment discontinuation, no. of patients [1]: 0 | TEAE with CTCAE grade 3 or 4, no. of patients [1]: 0 | TEAEs leading to death, no. of patients [1]: 0 | Any TEAE, % of patients [2]: 100.0% | Any TEAE, no. of patients [2]: 2 | Any related serious TEAE, no. of patients [2]: 0 | Any serious TEAE, no. of patients [2]: 0 | Related TEAE leading to treatment discontinuation, no. of patients [2]: 0 | Related TEAEs with CTCAE grade 3 or 4, no. of patients [2]: 0 | TEAE leading to treatment discontinuation, no. of patients [2]: 0 | TEAE with CTCAE grade 3 or 4, % of patients [2]: 100.0% | TEAE with CTCAE grade 3 or 4, no. of patients [2]: 2 | TEAEs leading to death, no. of patients [2]: 0 | Any TEAE, % of patients [3]: (100.0%) | Any TEAE, no. of patients [3]: 19 | Any related serious TEAE, % of patients [3]: (5.3%) | Any serious TEAE, % of patients [3]: (36.8%) | Any serious TEAE, no. of patients [3]: 7 | Related TEAE leading to treatment discontinuation, % of patients [3]: (10.5%) | Related TEAEs with CTCAE grade 3 or 4, % of patients [3]: (57.9%) | Related TEAEs with CTCAE grade 3 or 4, no. of patients [3]: 11 | TEAE leading to treatment discontinuation, % of patients [3]: (10.5%) | TEAE leading to treatment discontinuation, no. of patients [3]: 2 | TEAE with CTCAE grade 3 or 4, % of patients [3]: (68.4%) | TEAE with CTCAE grade 3 or 4, no. of patients [3]: 13 | TEAEs leading to death, no. of patients [3]: 0 | Any related serious TEAE, no. of patients (1.8 mg/kg 2Q3W, 19 sarcoma patients, hepatic encephalopathy, CTCAE grade 2): 1 | Related TEAE leading to treatment discontinuation, no. of patients (1.8 mg/kg 2Q3W, 19 sarcoma patients, neuropathy peripheral grade 2, fatigue grade 3): 2 | Any TEAE, % of patients [4]: (100.0%) | Any TEAE, no. of patients [4]: 2 | Any related serious TEAE, no. of patients [4]: 0 | Any serious TEAE, % of patients [4]: (50.0%) | Any serious TEAE, no. of patients [4]: 1 | Related TEAE leading to treatment discontinuation, no. of patients [4]: 0 | Related TEAEs with CTCAE grade 3 or 4, no. of patients [4]: 0 | TEAE leading to treatment discontinuation, no. of patients [4]: 0 | TEAE with CTCAE grade 3 or 4, % of patients [4]: (50.0%) | TEAE with CTCAE grade 3 or 4, no. of patients [4]: 1 | TEAEs leading to death, no. of patients [4]: 0 | Any TEAE, % of patients [5]: (100.0%) | Any TEAE, no. of patients [5]: 2 | Any related serious TEAE, no. of patients [5]: 0 | Any serious TEAE, % of patients [5]: (50.0%) | Any serious TEAE, no. of patients [5]: 1 | Related TEAE leading to treatment discontinuation, no. of patients [5]: 0 | Related TEAEs with CTCAE grade 3 or 4, % of patients [5]: (50.0%) | Related TEAEs with CTCAE grade 3 or 4, no. of patients [5]: 1 | TEAE leading to treatment discontinuation, no. of patients [5]: 0 | TEAE with CTCAE grade 3 or 4, % of patients [5]: (50.0%) | TEAE with CTCAE grade 3 or 4, no. of patients [5]: 1 | TEAEs leading to death, no. of patients [5]: 0 | Alanine aminotransferase increased, % [6]: (46.2) % | Alopecia, % [6]: (23.9) % | Anemia, % [6]: (15.4) % | Arthralgia, % [6]: (23.9) % | Aspartate aminotransferase increased, % [6]: (42.3) % | Blood alkaline phosphatase increased, % [6]: (23.9) % | Blood bilirubin increased, % [6]: (3.8) % | Bone pain, % [6]: (26.9) % | Constipation, % [6]: (26.9) % | Decreased appetite, % [6]: (23.9) % | Diarrhea, % [6]: (26.9) % | Fatigue, % [6]: (61.5) % | Hypokalemia, % [6]: (15.4) % | Hyponatremia, % [6]: (11.5) % | Lymphocyte count decreased, % [6]: (7.7) % | Nausea, % [6]: (58.3) % | Neutrophil count decreased, % [6]: (26.9) % | Patients with at least one TEAE, % [6]: (100.0) % | Peripheral neuropathy, % [6]: (15.4) %

From patent US20250276075A1, “METHODS OF TREATING AXL-EXPRESSING CANCERS WITH ANTI-AXL ANTIBODIES, ANTIBODY FRAGMENTS AND THEIR IMMUNOCONJUGATES” (BIOATLA, INC., priority 2020, published 2025)
